Measurements reported in US20150216779A1, “COMPOSITIONS FOR TARGETED ANTI-AGING THERAPY” (THE TEXAS A&M UNIVERSITY SYSTEM, priority 2012, published 2015).

What was measured:
[1] = Turbidity after heating at 90° C. for 30 seconds (plate heat exchanger); assay type: physicochemical; details: 1 mg/ml lactoferrin in 10 mM potassium acetate, pH 6.3; heated at 90° C. for 30 seconds
Description: Formulations containing heat-stabilized lactoferrin (1 mg/ml) without added branched-chain amino acids (Formulation 1) and heat-stabilized lactoferrin (1 mg/ml) with added branched-chain amino acids (2 mg/ml) (Formulation 2) were dissolved in the buffered solution (10 mM potassium acetate, pH 6.3) to make 4 liters solution. The two liquid formulations were heated by using a plate heat exchanger at 90° C. for 30 seconds, and cooled to 5° C., after which they were stored in sterilized bottles, and bubbled with carbon dioxide (CO2) in an aseptic room. The two resultant liquid formulations with a zinc ion concentration of 2.4 mg per 100 ml had excellent taste and appearance. […] Lactoferrin aggregation occurred at pH 6.3, which corresponded to its high thermal instability.

[2] = heat-treated at 63 and 85° C.; cited from earlier work

B1: lactoferrin: iron-binding glycoprotein of the transferrin family present in milk; unstabilized buffered solution at 1 mg/ml (protein, UniProt P24627 20-708, looked up)
Lactotransferrin: APRKNVRWCTISQPEWFKCRRWQWRMKKLGAPSITCVRRAFALECIRAIAEKKADAVTLDGGMVFEAGRDPYKLRPVAAEIYGTKESPQTHYYAVAVVKKGSNFQLDQLQGRKSCHTGLGRSAGWIIPMGILRPYLSWTESLEPLQGAVAKFFSASCVPCIDRQAYPNLCQLCKGEGENQCACSSREPYFGYSGAFKCLQDGAGDVAFVKETTVFENLPEKADRDQYELLCLNNSRAPVDAFKECHLAQVPSHAVVARSVDGKEDLIWKLLSKAQEKFGKNKSRSFQLFGSPPGQRDLLFKDSALGFLRIPSKVDSALYLGSRYLTTLKNLRETAEEVKARYTRVVWCAVGPEEQKKCQQWSQQSGQNVTCATASTTDDCIVLVLKGEADALNLDGGYIYTAGKCGLVPVLAENRKSSKHSSLDCVLRPTEGYLAVAVVKKANEGLTWNSLKDKKSCHTAVDRTAGWNIPMGLIVNQTGSCAFDEFFSQSCAPGADPKSRLCALCAGDDQGLDKCVPNSKEKYYGYTGAFRCLAEDVGDVAFVKNDTVWENTNGESTADWAKNLNREDFRLLCLDGTRKPVTEAQSCHLAVAPNHAVVSRSDRAAHVKQVLLHQQALFGKNGKNCPDKFCLFKSETKNLLFNDNTECLAKLGGRPTYEEYLGTEYVTAIANLKKCSTSPLLEACAFLTR
appearance of solution after heating (turbidity / transparency) [1]: turbid | immunological properties after heat treatment [2]: loses its immunological properties
